Biological target: T1, Killin/N8-50 peptide (Homo sapiens, UniProt B2CW77 SEQ:8-49)
T1 chain: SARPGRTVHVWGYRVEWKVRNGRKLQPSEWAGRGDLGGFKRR
Experiment: EMSA; apparent Kd; 20 mM Tris-Cl pH 8.4, 25 mM KCl, 1.5 mM MgCl2, 100 ug/mL BSA, RT
Details: protein: synthetic, tags: chemically synthesized 42 aa peptide (Sigma-Genosys, at least 70% purity)
Text: After annealing, probes for artificial replication fork (LL and RL) or double-stranded DNA template (LL and RLM) were end-labeled with α-³²P-dATP (Perkin-Elmer) using Klenow (New England Biolab). Single-stranded oligonucleotide (LL) was end-labeled with […] (Perkin-Elmer) using T4 polynucleotide kinase (New England Biolab). After purifying with Sephadex-G50 spin columns (Roche), the labeled probes (200,000 CPM each) were mixed with an increasing amount of Killin/N8-50 peptide in the presence of 20 mM Tris-Cl (pH 8.4), 25 mM KCl, 1.5 mM MgCl₂ and 100 μg/mL of BSA. The reaction mixtures were incubated at RT for 30 min and separated on a 6% polyacrylamide gel with 1× TBE buffer. After drying the gel onto a Whatman No. 1 filter paper, the DNA-protein complexes were visualized by autoradiography. For binding kinetics, bands from DNA-peptide complex were excised and the radioactivity was determined by scintillation counting. To determine the stability of the DNA-Killin peptide complex, 0.5 μg of either double-stranded (RF form) or single-stranded (viral form) of PhiX174 bacterial phage DNA (New England Biolab) were incubated at room temperature for 30 min with 1 ug of Killin/N8-50 peptide in a 20 μL reaction. The samples were then resolved on a 0.8% TAE agarose gel and stained with ethidium bromide.

B1: LL single-stranded oligonucleotide (ssDNA)
DNA: TTTGCACGTCGGATCCGACCCAGACTACGGAGGCC
Work on B1 yielded a Kd (label: 32P (T4 PNK)) of 500 nM.

B2: LL/RLM double-stranded DNA (dsDNA)
DNA 1: B1 DNA
DNA 2: GGCCTCCGTAGTCTGGGTCGGATCCGACGTGC
B2 was tested, and the Kd (label: 32P (Klenow fill-in)) was 1000 nM.

B3: LL/RL artificial replication fork (structured_DNA)
DNA 1: B1 DNA
DNA 2: CCGGAGGCATCAGACGGTCGGATCCGACGTGC
Binder B3 has a Kd (label: 32P (Klenow fill-in), replication fork with unpaired arms) of 1000 nM.

Reference: patent publication US20100261778, “Tumor Suppressor Killin” (published 2010)
